Measured values: article PMC12442453

Target: T1, human EPOR, endogenous on TF-1 cells (human (endogenous in TF-1)) (UniProt P19235)
T1 sequence: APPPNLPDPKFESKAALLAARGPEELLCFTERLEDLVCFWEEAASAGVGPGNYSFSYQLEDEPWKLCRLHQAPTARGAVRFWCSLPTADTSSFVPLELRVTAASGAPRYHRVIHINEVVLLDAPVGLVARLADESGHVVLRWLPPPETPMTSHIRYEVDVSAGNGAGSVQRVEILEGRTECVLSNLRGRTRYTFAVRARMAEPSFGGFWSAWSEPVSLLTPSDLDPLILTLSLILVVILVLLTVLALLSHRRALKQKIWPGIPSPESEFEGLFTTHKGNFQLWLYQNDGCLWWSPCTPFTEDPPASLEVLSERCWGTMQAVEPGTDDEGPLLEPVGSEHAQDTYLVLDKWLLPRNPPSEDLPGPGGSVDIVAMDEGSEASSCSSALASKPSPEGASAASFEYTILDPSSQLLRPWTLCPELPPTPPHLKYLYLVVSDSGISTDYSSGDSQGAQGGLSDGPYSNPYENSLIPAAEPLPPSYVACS

B1: Db-Fc 1.3 (Fc fusion)
VH: EVQLVESGGGLVQPGGSLRLSCAASGFNLRSYYMHWVRQAPGKGLEWVASISPHYGYTYYADSVKGRFTISADTSKNTAYLQMNSLRAEDTAVYYCARHGYSAMDYWGQGTLVTVSS
VL: DIQMTQSPSSLSASVGDRVTITCRASQSVSSAVAWYQQKPGKAPKLLIYSASSLYSGVPSRFSGSRSGTDFTLTISSLQPEDFATYYCQQSSDSLFTFGQGTKVEIK
B1 showed a UT-7/Epo cell proliferation, EC50; Tb-Fc2 fraction of variant 1.3 (putative tetramer) of 2 nM and a UT-7/Epo cell proliferation, maximum response; Tb-Fc2 fraction of variant 1.3 (putative tetramer) of 2.2e+06 RLU.
